# Data taken from US7521540B2, “CYR61 compositions and methods” (Munin Corporation, priority 1996, dated 2009).
# B1: Cyr61: Cysteine-rich ECM signaling protein; murine sequence SEQ ID NO:2, recombinant from Baculovirus-infected Sf9 cells (protein, listed as Mus musculus)
# chain: MSSSTFRTLAVAVTLLHLTRLALSTCPAACHCPLEAPKCAPGVGLVRDGCGCCKVCAKQLNEDCSKTQPCDHTKGLECNFGASSTALKGICRAQSEGRPCEYNSRIYQNGESFQPNCKHQCTCIDGAVGCIPLCPQELSLPNLGCPNPRLVKVSGQCCEEWVCDEDSIKDSLDDQDDLLGLDASEVELTRNNELIAIGKGSSLKRLPVFGTEPRVLFNPLHAHGQKCIVQTTSWSQCSKSCGTGISTRVTNDNPECRLVKETRICEVRPCGQPVYSSLKKGKKCSKTKKSPEPVRFTYAGCSSVKKYRPKYCGSCVDGRCCTPLQTRTVKMRFRCEDGEMFSKNVMMIQSCKCNYNCPHPNEASFRLYSLFNDIHKFRD
# Columns and labels:
# [1] = Sensitivity of Cyr61 cell-attachment activity to DTT, heat, acid and protease; assay type: physicochemical
# Method: Because murine Cyr61 contains 38 cysteines in the 355 amino acid secreted portion, the contribution of disulfide bond formation to Cyr61 tertiary structure was investigated. […] However, Cyr61 was inactivated by heating at 75° C. for 5 minutes, by incubation in 100 mM HCl, or upon extensive digestion with chymotrypsin. […] In addition, Cyr61 is neither phosphorylated nor glycosylated.
# (§1) Another embodiment of the invention is directed to the use of Cyr61 to mediate cellular attachment to the extracellular matrix. Induction of cellular adhesion was investigated using murine Cyr61, fibronectin, and bovine serum albumin (BSA). Immunological 96-well plates (Falcon brand) were coated with 50 μl of 0.1% BSA in PBS at 4° C. in the presence of 0-30 μg/ml concentrations of murine Cyr61 or fibronectin. After two hours exposure to the coating solution, non-diluted immune or pre-immune antisera (30 μl/well), or affinity-purified anti-Cyr61 antibodies were added. For some wells, the coating mixture was adjusted to 10 mM DTT or 100 mM HCl. After 16 hours incubation, the coating solution was removed and the well surface was blocked with 1% BSA in phosphate-buffered saline (PBS) for 1 hour at room temperature. HUVE cells were plated in Ham's complete F12K medium [GIBCO-BRL, Inc.; Ham, Proc. Natl. Acacd. Sci. (USA) 53:786 (1965)] at 5×10^3-10^4 cells/well. Cycloheximide was added to 100 μg/ml immediately before plating and monensin was added to 1 μM 14 hours before plating. After a 2-hour incubation at 37° C., the wells were washed with PBS and attached cells were fixed and stained with methylene blue. The attachment efficiency was determined by quantitative dye extraction and measurement of the extract absorbance at 650 nm. Oliver et al., J. Cell. Sci. 92:513-518 (1989).
# HUVE cells [2] = assay: HUVE cell attachment to murine Cyr61-coated plates; assay type: cell-based, human
# Method: as §1
# HUVE cells [3] = assay: Cell spreading assay; assay type: cell-based, human; conditions: dishes coated with 10 μg/ml, 2 hours
# Method: In another embodiment of the invention, the effect of murine Cyr61 on cell morphogenesis was assessed by a cell spreading assay. Polystyrene Petri dishes were coated with 2 ml of a 10 μg/ml solution of Cyr61 or fibronectin in PBS with 0.1% BSA and treated as described above. A third plate was treated with BSA and served as a control. Each dish received 7×10^6 cells and was incubated for 2 hours. Cell spreading was analyzed by microscopy at 100-fold magnification.
# NIH 3T3 cells = assay: Fibroblast chemotaxis, modified Boyden chamber; assay type: cell-based, mouse
# From the text: Cyr61 also affects chondrocytes, e.g., […] involved in skeletal development. In particular, Cyr61 influences the development, and perhaps maintenance, of cartilage, in contrast to the variety of growth-related proteins that exclusively influence development and maintenance of the bony skeleton. The chemotactic response of NIH 3T3 cells to murine Cyr61 was examined using a modified Boyden chamber (Neuroprobe Inc., catalog no. AP48). Grotendorst, Meth. Enzymol. 147:144-152 (1987). Purified Cyr61 protein was serially diluted in DMEM containing bovine serum albumin (BSA; 0.2 mg/ml) and added to the lower well of the chamber. The lower well was then covered with a collagen-coated polycarbonate filter (8 μm pore diameter; Nucleopore Corp., Pleasanton, Calif.). Cells (6×10^4) were then loaded into the upper well. After 5 hours incubation (10% CO2, 37° C.), the filter was removed and the cells were fixed and stained using Wright-Giemsa stain (Harleco formulation; EM Diagnostic Systems, Gibbstown, N.J.). Cells from the upper surface of the filter were then removed by wiping with a tissue swab. The chemotactic response was determined by counting the total number of migrating cells detected in ten randomly selected high-power microscopic fields (400-fold magnification) on the lower surface of the filter. Duplicate trials were performed for each experiment and the experiment was repeated three times to ensure reproducibility of the data.
# [4] = system: primary human foreskin fibroblasts; assay: Cyr61-regulated gene expression (multi-gene blot, Northern); assay type: cell-based
# Method: Purified, soluble, recombinant Cyr61 protein was added to cultures of primary human foreskin fibroblasts for 24 hours. From these cells, mRNA was isolated for preparation of probes to hybridize to a multi-gene blot (Clontech Atlas Human Array 1.2 cat no. 7850-1) containing about 650 genes. The levels of expression of these genes in Cyr61-treated cells were compared to that of control cells. […] These findings have been confirmed by Northern blot analysis showing increases or decreases of the mRNAs in question in Cyr61-treated cells. A time course of expression changes has been established. In particular, by 6 hours after its addition, Cyr61 has induced expression of VEGF-A mRNA and the induction is still evident at 12 and 24 hours post-addition. Also at 12 and 24 hours post-addition, Cyr61 has induced expression of VEGF-A polypeptide. With respect to VEGF-C, induction of mRNA is clearly evident 12 hours after addition of Cyr61 and the induction persists at least through 24 hours post-addition. Cyr61 is expected to induce the expression of VEGF-C polypeptide with similar kinetics.
molecule,measurement,setting,value
B1,ability to mediate cell attachment after treatment,"[1]; 10 mM dithiothreitol (DTT), 16 hours",did not affect the ability of Cyr61 to mediate cell attachment
same,activity after heating,[1]; 75° C. for 5 minutes,inactivated
same,activity after protease,[1]; extensive digestion with chymotrypsin,inactivated
same,activity after acid,[1]; incubation in 100 mM HCl,inactivated
same,"HUVE cell attachment, A650",HUVE cells [2]; coating 1 μg/ml,0.1 A650
same,"HUVE cell attachment, A650",HUVE cells [2]; coating 30 μg/ml,0.8 A650
same,HUVE cell spreading,HUVE cells [3],induces HUVE cell spreading to approximately the same extent as fibronectin
same,optimal concentration for the chemotactic activity,NIH 3T3 cells,1 to 5 µg/mL
same,migrating cells per high-power field,NIH 3T3 cells; 0.5 μg/ml,about 5.2 cells
same,average number of migrating cells detected per field,NIH 3T3 cells; 1 μg/ml,7.5 cells
same,average number of migrating cells detected per field,NIH 3T3 cells; 5 μg/ml,18.5 cells
same,average number of migrating cells detected per field,NIH 3T3 cells; 10 μg/ml,18.7 cells
same,time after addition at which VEGF-A mRNA is induced,[4],≤ 6 h
same,time after addition at which VEGF-C mRNA induction is clearly evident,[4],12 h
same,expression of angiogenic molecules,"[4]; soluble Cyr61, 24 hours",induction of the angiogenic molecules VEGF1 and VEGF3
same,expression of inflammation-related cytokines,"[4]; soluble Cyr61, 24 hours",induction of the inflammation-related cytokines IL-1 and IL-6
same,expression of matrix degrading enzymes,"[4]; soluble Cyr61, 24 hours","upregulation of matrix degrading enzymes including MMP1, MMP3, and uPA"
same,expression of matrix protein genes,"[4]; soluble Cyr61, 24 hours",downregulation of matrix protein genes such as the type I collagen chain gene
